Experimental data as given in patent publication US20140274782A1, “AFFINITY REAGENTS AND METHODS FOR DETECTION, PURIFICATION, AND PROTEOMIC ANALYSIS OF METHYLATED PROTEINS” (The Board of Trustees of the Leland Stanford Junior …, priority 2013, published 2014).

B1: MATR3 (protein, UniProt P43243 2-847, looked up)
Matrin-3: SKSFQQSSLSRDSQGHGRDLSAAGIGLLAAATQSLSMPASLGRMNQGTARLASLMNLGMSSSLNQQGAHSALSSASTSSHNLQSIFNIGSRGPLPLSSQHRGDADQASNILASFGLSARDLDELSRYPEDKITPENLPQILLQLKRRRTEEGPTLSYGRDGRSATREPPYRVPRDDWEEKRHFRRDSFDDRGPSLNPVLDYDHGSRSQESGYYDRMDYEDDRLRDGERCRDDSFFGETSHNYHKFDSEYERMGRGPGPLQERSLFEKKRGAPPSSNIEDFHGLLPKGYPHLCSICDLPVHSNKEWSQHINGASHSRRCQLLLEIYPEWNPDNDTGHTMGDPFMLQQSTNPAPGILGPPPPSFHLGGPAVGPRGNLGAGNGNLQGPRHMQKGRVETSRVVHIMDFQRGKNLRYQLLQLVEPFGVISNHLILNKINEAFIEMATTEDAQAAVDYYTTTPALVFGKPVRVHLSQKYKRIKKPEGKPDQKFDQKQELGRVIHLSNLPHSGYSDSAVLKLAEPYGKIKNYILMRMKSQAFIEMETREDAMAMVDHCLKKALWFQGRCVKVDLSEKYKKLVLRIPNRGIDLLKKDKSRKRSYSPDGKESPSDKKSKTDGSQKTESSTEGKEQEEKSGEDGEKDTKDDQTEQEPNMLLESEDELLVDEEEAAALLESGSSVGDETDLANLGDVASDGKKEPSDKAVKKDGSASAAAKKKLKKVDKIEELDQENEAALENGIKNEENTEPGAESSENADDPNKDTSENADGQSDENKDDYTIPDEYRIGPYQPNVPVGIDYVIPKTGFYCKLCSLFYTNEEVAKNTHCSSLPHYQKLKKFLNKLAEERRQKKET
B2: POLDIP3 (protein, UniProt Q9BY77 2-421, looked up)
Polymerase delta-interacting …: ADISLDELIRKRGAAAKGRLNARPGVGGVRSRVGIQQGLLSQSTRTATFQQRFDARQKIGLSDARLKLGVKDAREKLLQKDARFRIKGKVQDAREMLNSRKQQTTVPQKPRQVADAREKISLKRSSPAAFINPPIGTVTPALKLTKTIQVPQQKAMAPLHPHPAGMRINVVNNHQAKQNLYDLDEDDDGIASVPTKQMKFAASGGFLHHMAGLSSSKLSMSKALPLTKVVQNDAYTAPALPSSIRTKALTNMSRTLVNKEEPPKELPAAEPVLSPLEGTKMTVNNLHPRVTEEDIVELFCVCGALKRARLVHPGVAEVVFVKKDDAITAYKKYNNRCLDGQPMKCNLHMNGNVITSDQPILLRLSDSPSMKKESELPRRVNSASSSNPPAEVDPDTILKALFKSSGASVTTQPTEFKIKL
B3: XRN2 (protein, UniProt Q9H0D6 1-950, looked up)
5'-3' exoribonuclease 2: MGVPAFFRWLSRKYPSIIVNCVEEKPKECNGVKIPVDASKPNPNDVEFDNLYLDMNGIIHPCTHPEDKPAPKNEDEMMVAIFEYIDRLFSIVRPRRLLYMAIDGVAPRAKMNQQRSRRFRASKEGMEAAVEKQRVREEILAKGGFLPPEEIKERFDSNCITPGTEFMDNLAKCLRYYIADRLNNDPGWKNLTVILSDASAPGEGEHKIMDYIRRQRAQPNHDPNTHHCLCGADADLIMLGLATHEPNFTIIREEFKPNKPKPCGLCNQFGHEVKDCEGLPREKKGKHDELADSLPCAEGEFIFLRLNVLREYLERELTMASLPFTFDVERSIDDWVFMCFFVGNDFLPHLPSLEIRENAIDRLVNIYKNVVHKTGGYLTESGYVNLQRVQMIMLAVGEVEDSIFKKRKDDEDSFRRRQKEKRKRMKRDQPAFTPSGILTPHALGSRNSPGSQVASNPRQAAYEMRMQNNSSPSISPNTSFTSDGSPSPLGGIKRKAEDSDSEPEPEDNVRLWEAGWKQRYYKNKFDVDAADEKFRRKVVQSYVEGLCWVLRYYYQGCASWKWYYPFHYAPFASDFEGIADMPSDFEKGTKPFKPLEQLMGVFPAASGNFLPPSWRKLMSDPDSSIIDFYPEDFAIDLNGKKYAWQGVALLPFVDERRLRAALEEVYPDLTPEETRRNSLGGDVLFVGKHHPLHDFILELYQTGSTEPVEVPPELCHGIQGKFSLDEEAILPDQIVCSPVPMLRDLTQNTVVSINFKDPQFAEDYIFKAVMLPGARKPAAVLKPSDWEKSSNGRQWKPQLGFNRDRRPVHLDQAAFRTLGHVMPRGSGTGIYSNAAPPPVTYQGNLYRPLLRGQAQIPKLMSNMRPQDSWRGPPPLFQQQRFDRGVGAEPLLPWNRMLQTQNAAFQPNQYQMLAGPGGYPPRRDDRGGRQGYPREGRKYPLPPPSGRYNWN
B4: TXN (protein, UniProt P10599 2-105, looked up)
Thioredoxin: VKQIESKTAFQEALDAAGDKLVVVDFSATWCGPCKMIKPFFHSLSEKYSNVIFLEVDVDDCQDVASECEVKCMPTFQFFKKGQKVGEFSGANKEKLEATINELV

Columns and labels:
3×MBT domain of L3MBTL1 = assay: Triple SILAC pull-down, 3xMBT/3xMBTD355N ratio (cytoplasmic, nuclear and chromatin fractions of 293T cells); format: binding, human; details: SILAC ratio, pull-down 3xMBT vs 3xMBTD355N; for 3xMBT/D355N UNC Heavy: experiment with UNC0638 in heavy SILAC media; for 3xMBT/D355N UNC Light: experiment with UNC0638 in light SILAC media;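 for all read-outs here: proteins quantified with MaxQuant, requiring at least two unique peptides and quantification in both label directions, normalized to the mean of proteins from a digested loading control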
G9a and GLP = target: T1, G9a and GLP (Homo sapiens, UniProt Q96KQ7+Q9H9B1); assay: Triple SILAC pull-down after UNC0638 treatment of 293T cells, DMSO/UNC0638 ratio of protein captured by 3×MBT; format: cell-based; design: endogenous in cells; host or cells: HEK 293T; details: for Relative to UNC0638 UNC Heavy / Relative to UNC0638 UNC Light: SILAC ratio DMSO/UNC0638 of protein pulled down with 3xMBT; for Relative to UNC0638 UNC Heavy: UNC0638 in heavy SILAC media; for Relative to UNC0638 UNC Light: UNC0638 in light SILAC media; for Relative to UNC0638 Average: average of UNC Light and UNC Heavy experiments;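 for all read-outs here: mass spectrometry (Q-Exactive) SILAC quantitation, DMSO/UNC0638 ratio computed after subtracting 3×MBTD355N mutant pull-down background, only proteins with at least twofold 3×MBT over mutant signal considered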
T1 sequence (Q96KQ7 2-1210 limits assumed): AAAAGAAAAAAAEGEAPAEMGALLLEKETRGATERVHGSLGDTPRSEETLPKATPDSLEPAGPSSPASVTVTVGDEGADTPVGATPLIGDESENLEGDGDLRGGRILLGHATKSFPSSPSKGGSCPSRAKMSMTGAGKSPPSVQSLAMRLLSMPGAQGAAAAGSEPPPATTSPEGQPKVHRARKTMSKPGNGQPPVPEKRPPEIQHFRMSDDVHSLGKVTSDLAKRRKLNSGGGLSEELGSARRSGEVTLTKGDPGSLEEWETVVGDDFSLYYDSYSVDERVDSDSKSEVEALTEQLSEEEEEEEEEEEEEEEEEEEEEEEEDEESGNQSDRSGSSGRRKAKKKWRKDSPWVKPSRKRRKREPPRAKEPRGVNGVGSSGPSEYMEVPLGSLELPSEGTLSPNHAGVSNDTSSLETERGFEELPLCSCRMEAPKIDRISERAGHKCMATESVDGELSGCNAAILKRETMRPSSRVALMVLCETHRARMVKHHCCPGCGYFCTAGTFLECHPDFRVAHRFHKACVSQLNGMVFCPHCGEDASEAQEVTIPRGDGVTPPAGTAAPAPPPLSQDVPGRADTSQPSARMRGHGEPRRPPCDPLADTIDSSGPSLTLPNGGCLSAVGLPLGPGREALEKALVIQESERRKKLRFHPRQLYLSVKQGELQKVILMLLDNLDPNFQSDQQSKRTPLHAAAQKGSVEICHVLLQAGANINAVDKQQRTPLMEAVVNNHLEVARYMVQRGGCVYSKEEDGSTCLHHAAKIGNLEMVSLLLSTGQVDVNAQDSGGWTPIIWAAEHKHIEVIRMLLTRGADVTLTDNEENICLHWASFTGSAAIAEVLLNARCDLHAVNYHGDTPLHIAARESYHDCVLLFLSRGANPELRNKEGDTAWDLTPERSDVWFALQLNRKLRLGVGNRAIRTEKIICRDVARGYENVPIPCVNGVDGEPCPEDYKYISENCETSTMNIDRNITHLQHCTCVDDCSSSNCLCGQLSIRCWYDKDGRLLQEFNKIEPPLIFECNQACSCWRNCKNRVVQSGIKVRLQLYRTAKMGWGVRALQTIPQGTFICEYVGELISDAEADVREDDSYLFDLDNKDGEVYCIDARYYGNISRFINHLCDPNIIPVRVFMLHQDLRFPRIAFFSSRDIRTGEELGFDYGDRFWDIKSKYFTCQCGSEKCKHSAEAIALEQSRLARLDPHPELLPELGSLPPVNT
T1 sequence (Q9H9B1 2-1298 limits assumed): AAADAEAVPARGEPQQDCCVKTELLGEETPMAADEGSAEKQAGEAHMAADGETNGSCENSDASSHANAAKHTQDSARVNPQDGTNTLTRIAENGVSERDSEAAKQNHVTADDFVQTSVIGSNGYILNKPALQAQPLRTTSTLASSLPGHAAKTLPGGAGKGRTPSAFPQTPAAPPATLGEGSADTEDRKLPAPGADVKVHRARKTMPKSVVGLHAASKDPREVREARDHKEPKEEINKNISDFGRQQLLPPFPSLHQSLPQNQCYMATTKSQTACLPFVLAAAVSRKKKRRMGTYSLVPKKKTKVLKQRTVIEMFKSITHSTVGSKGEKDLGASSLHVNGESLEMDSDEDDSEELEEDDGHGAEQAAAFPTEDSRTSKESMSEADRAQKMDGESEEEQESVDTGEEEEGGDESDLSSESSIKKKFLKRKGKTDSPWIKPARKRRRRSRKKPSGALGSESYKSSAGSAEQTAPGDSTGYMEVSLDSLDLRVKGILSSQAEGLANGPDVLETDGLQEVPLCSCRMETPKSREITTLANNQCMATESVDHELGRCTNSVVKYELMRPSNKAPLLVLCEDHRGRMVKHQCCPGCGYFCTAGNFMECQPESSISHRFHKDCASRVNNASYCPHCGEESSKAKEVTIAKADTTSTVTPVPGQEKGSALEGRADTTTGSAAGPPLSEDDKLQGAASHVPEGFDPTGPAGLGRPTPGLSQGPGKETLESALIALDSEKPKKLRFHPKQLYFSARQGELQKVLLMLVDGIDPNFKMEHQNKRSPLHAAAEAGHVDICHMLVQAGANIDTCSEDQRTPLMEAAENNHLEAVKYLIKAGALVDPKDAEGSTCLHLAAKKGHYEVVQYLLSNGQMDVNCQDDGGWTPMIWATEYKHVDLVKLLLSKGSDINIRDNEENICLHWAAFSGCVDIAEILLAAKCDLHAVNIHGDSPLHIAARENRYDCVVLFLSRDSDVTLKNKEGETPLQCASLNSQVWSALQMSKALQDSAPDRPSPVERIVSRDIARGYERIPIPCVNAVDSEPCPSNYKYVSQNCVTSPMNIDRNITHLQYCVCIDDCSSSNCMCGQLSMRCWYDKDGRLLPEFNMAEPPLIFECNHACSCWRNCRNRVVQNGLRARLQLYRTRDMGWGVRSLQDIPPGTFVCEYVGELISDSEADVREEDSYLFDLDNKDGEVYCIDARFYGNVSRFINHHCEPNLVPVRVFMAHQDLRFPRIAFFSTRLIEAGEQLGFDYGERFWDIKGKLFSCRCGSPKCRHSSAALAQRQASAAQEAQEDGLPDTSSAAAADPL

| Molecule | 3xMBT/D355N UNC Heavy (3×MBT domain of L3MBTL1) [log base 2] | 3xMBT/D355N UNC Light (3×MBT domain of L3MBTL1) [log base 2] | Relative to UNC0638 UNC Heavy (G9a and GLP) [log base 2] | Relative to UNC0638 UNC Light (G9a and GLP) [log base 2] | Relative to UNC0638 Average (G9a and GLP) [log base 2] |
| --- | --- | --- | --- | --- | --- |
| B1 | 1.72 | 1.77 | 0.37 | 0.14 | 0.26 |
| B2 | 2.51 | 2.76 | 0.39 | 0.14 | 0.26 |
| B3 | 2.19 | 2.76 | 0.34 | 0.18 | 0.26 |
| B4 | 1.75 | 1.93 | 0.14 | 0.38 | 0.26 |
